Data set [1] addresses T1, AgEH (epoxide hydrolase from Anopheles gambiae) (Anopheles gambiae, UniProt Q7PZL6).
T1 sequence (Q7PZL6 1-340): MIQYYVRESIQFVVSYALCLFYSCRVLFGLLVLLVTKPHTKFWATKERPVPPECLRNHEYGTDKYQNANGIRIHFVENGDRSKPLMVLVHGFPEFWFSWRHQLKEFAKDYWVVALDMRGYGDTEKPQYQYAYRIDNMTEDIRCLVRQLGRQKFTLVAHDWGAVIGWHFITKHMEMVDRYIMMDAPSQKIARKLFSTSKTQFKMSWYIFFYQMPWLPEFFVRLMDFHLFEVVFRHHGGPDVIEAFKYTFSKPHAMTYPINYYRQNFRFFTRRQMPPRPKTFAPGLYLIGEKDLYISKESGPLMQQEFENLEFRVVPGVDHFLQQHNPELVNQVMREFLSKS
The data set can be described thus: % activity remaining on t-DPPO, recombinant AgEH in Sf-9 microsomes. It is filed as cell-based. To be noted: read-out: t-DPPO / 500nM.

In data set [2] the target is T1, AgEH (epoxide hydrolase from Anopheles gambiae). The data set can be described thus: inhibition of […],15-EET hydrolysis by recombinant AgEH in Sf-9 microsomes. It is filed as biochemical.
Substrate in data set [3]: c1ccc(C[C@@H]2O[C@H]2c2ccccc2)cc1
Format: biochemical, Anopheles gambiae.

Substrate in data set [4]: COC(=O)/C=C(\C)CC/C=C(\C)CC[C@H]1OC1(C)C
It is filed as biochemical, Anopheles gambiae.

Substrate in data set [5]: CCCCC/C=C\CC1OC1CCCCCCCC(=O)O
The data set can be described thus: Michaelis-Menten kinetics, LC-MS/MS, recombinant AgEH in Sf-9 microsomes. It is filed as biochemical, Anopheles gambiae.

Substrate in data set [6]: CCCCCC1OC1C/C=C\C/C=C\C/C=C\CCCC(=O)O
The data set is described as above. Format: biochemical, Anopheles gambiae.

As for `O=C(Nc1ccc(OC(F)(F)F)cc1)N[C@H]1CC[C@H](Oc2ccc(C(=O)O)cc2)CC1` [compound 2, trans-4-{4-[3-(4-trifluoromethoxy-phenyl)-ureido]-cyclohexyloxy}-benzoic acid], the activity at 0.5 µM in data set [1] came to 12.5%.

With `O=C(O)CCCCCCCCCCCNC(=O)NC12CC3CC(CC(C3)C1)C2` [compound 1, 12-(3-adamantan-1-yl-ureido) dodecanoic acid], the IC50 in data set [2] is ~60 nM.

B1: AgEH (epoxide hydrolase from Anopheles gambiae) (Anopheles gambiae) (protein)
chain: MIQYYVRESIQFVVSYALCLFYSCRVLFGLLVLLVTKPHTKFWATKERPVPPECLRNHEYGTDKYQNANGIRIHFVENGDRSKPLMVLVHGFPEFWFSWRHQLKEFAKDYWVVALDMRGYGDTEKPQYQYAYRIDNMTEDIRCLVRQLGRQKFTLVAHDWGAVIGWHFITKHMEMVDRYIMMDAPSQKIARKLFSTSKTQFKMSWYIFFYQMPWLPEFFVRLMDFHLFEVVFRHHGGPDVIEAFKYTFSKPHAMTYPINYYRQNFRFFTRRQMPPRPKTFAPGLYLIGEKDLYISKESGPLMQQEFENLEFRVVPGVDHFLQQHNPELVNQVMREFLSKS
On to B1, for which the Km in data set [3] stood at 30.5 ± 5.0 µM; in data set [4], 9.8 ± 2.0 µM; in data set [5], 7.0 ± 0.6 µM; in data set [6], 3.0 ± 0.3 µM. Besides, the Vmax amounted to 1.2 µmol/min/mg in data set [3], 1.3 µmol/min/mg in data set [4], 1.5 µmol/min/mg in data set [5] and 1.4 µmol/min/mg in data set [6]. The Vmax/Km in data set [3] came out at 41000 µL/min/mg; in data set [4] it was 130000 µL/min/mg; in data set [5], 210000 µL/min/mg; in data set [6] it was 460000 µL/min/mg.

The record behind these values is paper PMC4252830 (Insect biochemistry and molecular biology, 2014).
